# B1: Mad3-Bub3 complex + 0.5 μM Mad2: Mad3-Bub3 complex in the presence of 0.5 μM Mad2 (protein)
# chain 1: MKAYAKKRISYMPSSPSQNVINFEEIETQKENILPLKEGRSAAALSKAIHQPLVEINQVKSSFEQRLIDELPALSDPITLYLEYIKWLNNAYPQGGNSKQSGMLTLLERCLSHLKDLERYRNDVRFLKIWFWYIELFTRNSFMESRDIFMYMLRNGIGSELASFYEEFTNLLIQKEKFQYAVKILQLGIKNKARPNKVLEDRLNHLLRELGENNIQLGNEISMDSLESTVLGKTRSEFVNRLELANQNGTSSDVNLTKNNVFVDGEESDVELFETPNRGVYRDGWENFDLKAERNKENNLRISLLEANTNLGELKQHEMLSQKKRPYDEKLPIFRDSIGRSDPVYQMINTKDQKPEKIDCNFKLIYCEDEESKGGRLEFSLEEVLAISRNVYKRVRTNRKHPREANLGQEESANQKEAEAQSKRPKISRKALVSKSLTPSNQGRMFSGEEYINCPMTPKGRSTETSDIISAVKPRQLTPILEMRESNSFSQSKNSEIISDDDKSSSSFISYPPQR
# chain 2: MQIVQIEQAPKDYISDIKIIPSKSLLLITSWDGSLTVYKFDIQAKNVDLLQSLRYKHPLLCCNFIDNTDLQIYVGTVQGEILKVDLIGSPSFQALTNNEANLGICRICKYGDDKLIAASWDGLIEVIDPRNYGDGVIAVKNLNSNNTKVKNKIFTMDTNSSRLIVGMNNSQVQWFRLPLCEDDNGTIEESGLKYQIRDVALLPKEQEGYACSSIDGRVAVEFFDDQGDDYNSSKRFAFRCHRLNLKDTNLAYPVNSIEFSPRHKFLYTAGSDGIISCWNLQTRKKIKNFAKFNEDSVVKIACSDNILCLATSDDTFKTNAAIDQTIELNASSIYIIFDYEN
# chain 3: MSQSISLKGSTRTVTEFFEYSINSILYQRGVYPAEDFVTVKKYDLTLLKTHDDELKDYIRKILLQVHRWLLGGKCNQLVLCIVDKDEGEVVERWSFNVQHISGNSNGQDDVVDLNTTQSQIRALIRQITSSVTFLPELTKEGGYTFTVLAYTDADAKVPLEWADSNSKEIPDGEVVQFKTFSTNDHKVGAQVSYKY
# modifications: Mad2 added separately at 0.5 uM
# Biological target: T1, APC/C^Cdc20 (Saccharomyces cerevisiae, UniProt P16522+P53886)
# T1 construct: constructed within full-length Cdc20 by site-directed mutagenesis for analysis in vitro in the APC/C^Cdc20 assay; The APC/C was purified for enzyme assays from 1 mL of TAP-tagged Cdc16 yeast extract (SCSY51); made in house; host or cells: Cdc20: in vitro transcription/translation in rabbit reticulocyte lysate, used unpurified; APC/C: S. cerevisiae strain SCSY51 (Cdc16-TAP) extract, captured on IgG magnetic beads
# Assay: biochemical
# Format: biochemical
# Details: Mad3-Bub3 complex in the presence of 0.5 μM Mad2; ± sd, three independent titrations; read-out: IC50
# Experimental: Full-length, radio-labeled protein purifications were preformed as previously described. ^35S-Pds1 was prepared in a 500 μL IVT/T (In Vitro Transcription/Translation) reaction (Promega, USA), which contained 400 μL rabbit reticulocyte lysate, 20 μL of L-^35S-methionine (PerkinElmer, USA), 10 μg of plasmid DNA, and the remaining volume as nuclease-free ddH2O as recommended by the manufacturer. The reaction mixture was incubated for 2 hours at room temperature and gently mixed every 30 minutes. The reaction was added to pre-equilibrated IgG Sepharose beads (GE Healthcare, USA) in Bio-spin disposable chromatography columns (Bio-Rad, USA) for binding for 2 hours at room temperature. To ensure efficient binding, the beads were re-suspended several times every 30 minutes. After binding, the beads were washed with 5 mL wash buffer, containing 200 mM 4-(2-hydroxyethyl)-1-piperazineethanesulfonic acid (HEPES) at pH 8.0, 150 mM NaCl, 10% (v/v) glycerol, and 1 mM dithiothreitol (DTT). The ^35S-Pds1 was cleaved from the beads using TEV (Tobacco Etch Virus) protease in 1x TEV buffer (Invitrogen, USA) for 2 hours at room temperature, and the mixture was re-suspended several times every 30 minutes to promote efficient cleavage. The elution was collected and concentrated by employing an Amicon Ultra filter column (Millipore, Ireland). The concentrated ^35S-Pds1 was collected in a new tube, and stored at -20 °C.
# The production of Cdc20 or Cdh1 was prepared by IVT/T reactions, where 16 μL of rabbit reticulocyte lysate, 20 μM L-methionine, 0.4 μg of plasmid DNA, and a volume of nuclease-free ddH2O for a total volume of 20 μL. This freshly synthesized Cdc20 or Cdh1 protein was used directly in all APC/C assays after a 1-hour synthesis reaction at room temperature. The APC/C was purified for enzyme assays from 1 mL of TAP-tagged Cdc16 yeast extract (SCSY51) where extract was mixed with 50 μL 50:50 slurry magnetic beads (Invitrogen, Norway) for 2 hours at 4 °C. After incubation, the beads were washed with 3 mL APC/C wash buffer (200 mM of HEPES, 150 mM of NaCl and 10% (v/v) of glycerol). APC/C bound to IgG magnetic beads was used directly in the enzyme assays.
# APC/C assays were performed by adding the reaction contents in following order: 4.3 μL of QAH buffer, 20 μL of rabbit reticulocyte lysate containing Cdc20 or Cdh1 with or without an additional volume of recombinant checkpoint protein(s) or inhibitor peptides, 2.4 μL ubiquitin aldehyde (Boston Biochem, USA), APC/C, 16 μL pre-charged E1/E2/ATP/ubiquitin mix, and 13.3 μL of ^35S-Pds1 with QAH buffer (20 mM HEPES at pH 8.0, 100 mM NaCl, and 1 mM MgCl2). The E1/E2/ATP/ubiquitin mix were pre-charged by mixing 1 μL of E1 (Boston Biochem, USA), 1 μL of E2 (Boston Biochem, USA), 14.4 μL of ATP, 14.4 μL of […] (Boston Biochem, USA), and 17.2 μL of QAH buffer and incubated for 15 minutes at room temperature. Approximately 15 μL of samples were taken out at each time point, and the reaction was stopped by the addition of 2x protein sample buffer (125 mM Tris-HCl pH 6.8, 4% SDS, 20% glycerol, and 0.002% bromophenol blue, with 10% (final v/v) 2-mercaptoethanol added in fresh directly before use).
# For inhibitor titration and time-course experiments, recombinant Bub3, Mad2, Mad3, and the Mad3-Bub3 complex were expressed and purified as previously described. […] For inhibition of APC/C the co-factor Cdc20 or Cdh1 was made fresh by IVT/T, and pure recombinant checkpoint proteins or inhibitor peptides were added to the IVT/T mixture and incubated for an additional hour at room temperature. In titrations, a dilution series of the checkpoint protein(s) were made before incubation with the Cdc20 co-factor. SDS-PAGE was performed using stand protocols (BioRad, USA).
molecule,measurement,value
B1,IC50,70 ± 3 nM

# — PMC5993284, “Peptide inhibitors of the anaphase promoting-complex that cause sensitivity to microtubule poison” (PLoS ONE, 2018)
